Assay results published in the DeepSol protein solubility set.

Experiment: soluble on expression in E. coli; label from the status in PepcDB or PDB records

Soluble on expression in E. coli, not soluble:
MGSDKIHHHHHHMNLKDLENPGVWYRPAPFWSWNDKLCEEELLRQIDEMYEKGYGGFFMHSRVGLVTEYLSEEWMRLVRSCAEHARKLGMLAWLYDEDKWPSGFAGGIVPLEKPEHRHKYLTLLKKDQIKPEDEILKKIERDGEEFYVVKRVMKLGDPWFNGTCYVDLLSRETTEAFLRSTHERYKKSCGDLFRVSIPGIFTDEPTYLRVHHPKETTLPWTERFPEEFLRRKGYDIRDHLEELFFNVKDYMKVRYDFFDVATSLFIENFTIPYAKWCEENGIFMTGHYMAEDTLRGQVEWIGAAMPHYEYMQIPGIDKLARHLEQVVTIKQVSSAAEQLGKKWVLCETFGTTGQHVSFLHRKWIADWQAVLGVTYINPHLSLYSMRGERKRDYPPNLFYQQPWWKNERFLSDYFARLNHIVTQGKREVKVLMIHPISSAWCVYSKFDDEIDKLNELFDTITKELVANKIDFHFGDEMILSKHGRVKEAKLRVGEYEYEVVVLPPLLNLKSSTVELLNSLAENGGKVFVLKDFRYGRFFPERVEGKKGRIEFLKKARVFETLEDLIEELKPFFSVDVLDTKTKENAKAVIAQKRVLEDGSYLLFLANTDIDREVHCHLELKEKRKHTYAIDLFNFKLVELKENEFVMFPASSVCIWVTDEEVPAEDEKVVSTGVLLEKEFDFETALNDFEVKMNSFNVLPVDRVEYFEAGGRVFRNEFVSKIWYEFYRLPDGTPFRVEYSFEVRKKPQKLFLVVECAENLDRITVNGREVRYERKSCIFNEEQNFLDVNFGKMEITDLVREGKNTVVLEGRKENNITGPGCHTRVKDPENHRPTEVETIYLVGDFSLVNVDETRYVIDAPKIPDHRDITRDGYPFYVGSFTLKKIFECKKDPGKRYFLKLNGVEAASVEVILNGKFLGVLFWRPFMIDITDALRNGKNELQLVLTNTLFNLIEANHKADVLEETFRRPKSFIDFEHHTDRYILLPFGLENVAVLSSSSR, MGSDKIHHHHHHMNLPLQGIKVVELGQLIAGPFAAKILAEFGAEVIKVEPPLTGDPLRKWRLLHNGTSVWWAVQSRNKQSVTLDLRQPQAQEMVRRLIRDADVLVENFRPGTLEGWGLSWEDLHALNPKLIMLRVSGYGQTGPYRDRPGFGVIGEAMGGLRHLSGEVGRTPVRVGVSIGDSLAALHGVIGILLALRHREQNAGEGQQIDVALYESVFNMMESLIPEYSVFNTVREPAGSSLPGIAPTNAYRCNDGKYALIAGNGDSIYRRLMEKIGRPDLANDPQLEHNDGRVRHVARIDAAISTWTAERSLDDVLAALTDARIPAGKIYDAADIASDPHYQARDMLLQSALDDGTPVTVPGIVPKLQDTPGQIRSPAPTLGQHTDAVLQAHGIDAATREEWRRLGII, MGSDKIHHHHHHMNLQYVLLNDNSWQSQGEWQTPDTPFMSFAFWQALSDTGAIGEEAGWLPIYILVHRVESDDDFTVQQSLSSVEASIKVKQPVAVLPVFIKGHHRGEFVFDHSWAQAYAQYGLDYYPRLVTSAPYTPITGQRLWLAEGETLDAEIINTAIKGVDDIAQQVDASGWHGLFVTPEMATIATTLMPFNSHTRSAGQSHGVDSASNTSMNIASNTPVLERQGCQFLWQNKNLSQNDQLFADFEEFLATLKAKKRKTIRAERRKVAEQGITCQRKCGDEIIESDWKTFYHCYVMTYAVRGQQPYLSIDFFEALAQNMAEHVMLAQALDAGGEIIASSLFLYDKPDNKMATLYGRYWGALGEYDSLHFELCYYQGIEFAIEQGLHYFDPGTQGEHKLIRGFIPTTTHSLHRIYDARFVPAIADFCHKDRLHMAQYREQAFEALPFNIDNMPTFDNNE, MGSDKIHHHHHHMNLVAHAQNTEPFEGVMKWAITVDIVDSKVADSYQTEIQSEDNSEVNQAIKELEQQLKDPEMQEMLLENPTIKNSMLKKLQQLKAAQTTNQENSTNSIFPSALSIFLKNNNSFTKIDGGSMVKLTGNMLYLNTNKNTYFIKDKTSTYSVINDTARLNTNDSLIALIATTDTTMILDCICIKYILTTKENNEIKTSYIWITNDLPSMNSAAFRSLGFMDGNLHHEAFKEMKGIPMRIEIFEKGLKMNMEVSEISMELVADTYFTIPSNYRESPFGF, MGSDKIHHHHHHMNLYVGLDVGTTGVKGILVNEKGEILATANERLTMFTPQPAWAEQDPLSWWEAVKKILKNLSERSKEMGGKIRAISTSGQMHSLVAIDDNGKVLRNAILWCDQRTYKECEEATQILGGEENVLKLVGNPILPGFTLPKILWIRKHEPEIYGKISKIMLPKDFINYMLTGEVKTEHSDASGTVMYSVSKMEWNKDVLKELNIPESVLPEIIPSNGVVGNVKPEVASDLGLSEDTLVIGGGADNACAALGIAVVEPGDVMVSLGTSGTVLAPTKGNQPDPKGRVHFFAHTVPETRYHMGVMLSATYSLEWFKEKFLSEDYETINEEVDKIPAGSNGIIFLPYLNGERTPHRDPFARGVFFGISSYNTKWDMVRAIFEGVAFGIKDSFDILRELKVVLNSVRITGGGSKSRVWNKMLADMTGLRIQKPAVDEGASYGAAILAVSGSMGENPAKISKEWFRVKSYTDPAVENTETYEKLHEKFKKLYTSLKEMFRS, MGSDKIHHHHHHMNPQLLRVTNRIIERSRETRSAYLARIEQAKTSTVHRSQLACGNLAHGFAACQPEDKASLKSMLRNNIAIITSYNDMLSAHQPYEHYPEIIRKALHEANAVGQVAGGVPAMCDGVTQGQDGMELSLLSREVIAMSAAVGLSHNMFDGALFLGVCDKIVPGLTMAALSFGHLPAVFVPSGPMASGLPNKEKVRIRQLYAEGKVDRMALLESEAASYHAPGTCTFYGTANTNQMVVEFMGMQLPGSSFVHPDSPLRDALTAAAARQVTRMTGNGNEWMPIGKMIDEKVVVNGIVALLATGGSTNHTMHLVAMARAAGIQINWDDFSDLSDVVPLMARLYPNGPADINHFQAAGGVPVLVRELLKAGLLHEDVNTVAGFGLSRYTLEPWLNNGELDWREGAEKSLDSNVIASFEQPFSHHGGTKVLSGNLGRAVMKTSAVPVENQVIEAPAVVFESQHDVMPAFEAGLLDRDCVVVVRHQGPKANGMPELHKLMPPLGVLLDRCFKIALVTDGRLSGASGKVPSAIHVTPEAYDGGLLAKVRDGDIIRVNGQTGELTLLVDEAELAAREPHIPDLSASRVGTGRELFSALREKLSGAEQGATCITF, MGSDKIHHHHHHMNQKTRLTLILDELKTHPSLSLKDIMQLTGTSRDTARRDIVKLAAHNLAERNYGGISRPNTFNKLDQYLDRDDDLLQTKRALAHTASSYLLNDALLFLDISTTVACLPQYLQSKHPGMIVTNSLDIADQALRHSNFQTRILGGTLDAQQRCVQGADSILALHKFRFTTTVLSCAGLTADGVYYAYESDIALKETLRAQSDRLVLLFDHTKVNVSHNFNLLALSDFDYFVTDQPLPDNLATKIAPDKLIYL, MGSDKIHHHHHHMNRKGNLSMTTQLQHLTLPEDIQQKLLSYKEQPISPEFQSLIGTSGYEAEDEAILFDAIIALAMGKNVLLKGPTGSGKTKLAETLSSYFHKPMHSVNCSVDLDAEALVGYKTIENQSGQATIEFVSGPVTKAMKEGHFLYIDEINMAKPETLPILNGVLDYRKMMTNPFTGEVIRAKSGFGVIAAINEGYVGTVPLNEALKNRFVIIDVPYIKGELLKQVLMSQSALKDEKLIDRFITLSSDLIVQANNGQVSEEAASIRALIDTCDLAAYIPPRRAIERGIVEKLDDDREKAAVRNIAETLFE, MGSDKIHHHHHHMNRLRYSVNLSYEILDPTGDFLLIVEAAKTARQSVVSERLALTPPAHAARYTDPLGNRLLRIRANKGPLAIRYEAVVDIDHRLDDGMSLTEVPVAELPFDVLSYLAPSRYCESDRMMEFAMREFGSMRPGYSRVYAIREWVRNHVRFLSRSTNERTSAIDTIVERTGVCRDFSHLMIAICRALSIPARMSSSVDYGADPALGAPDFHAVVEVFLSGGWYLLDPSGVSIPTGLLRIGTGRDAADIPFAAIFGKVESKRPFIEIQPIADPVAGIGLPLATTSAISTW, MGSDKIHHHHHHMNSNQLAFTIPISREMINIANKLSQQQRNEQKTREVYLNTLALLAVEFFCQCMEIETEFSKSYGLDSVVLSLMNTASIFIKDKGLLECRPVLPREDFCEIPAEILSERIGYMVVEIDELDRQAKIVGFVESVSNEKLALSKLGSLQDFLIYLQKLQKIENYDPSNPDISEIARNQLNESIVKLSKWFKGLLDSGWEYELAIAKDIPNVLAVPKDISPVNVTDKEEVGGARIIHLMHLSEPVLLILRQTRLSPDEIEIILRLYPASESIFLLDGIKMTLLDEKDNPIRQLEKQAKASNWLQLRFKGNVGDKFSLKISFRGDSVITKFII, MGSDKIHHHHHHMNTPLYKALIQHARRNSHSFHVPGHHNGDVFFDDAKSIFDPLLTIDVTELAGLDDLHHPSGVIKEAQELASQLYGSAESFFLVNGTTVGNLAMILSVCEPGDTILVQRNCHKSVFHAVDLSGAEPVYLAPDVDSAMHVPTHVPLGTIKEALEAYPDAKGLVLTNPTYYGHSADLTEIITEAHHYGIPVLVDEAHGAHFILGEPFPVSALKMGADIVVQSAHKTLPAMTMGSYLHLNSSCRINRDRVAEYLNRLQSSSPSYPIMASLDIARAYVQHIIEEQKLSDILQRIETLKQTFDSLTNAEAVNPANPLIITDPLKLTIRSKRGHSGYTLQSILERANIFTELADENQVLLVLPLGGKRRINAEIIRSIDEEIEKTPPDQTFVSAEWGVQPVTVLPYPKKVLHSFKKEYVSFEEAAGRLNAEDIIPYPPGIPMIMAGERITKESVQKLSRLISMKTHVQGNMKIKEKQLLVYIEEEKS, MGSDKIHHHHHHMNTSISASWGRYINAIPPRSGEAALAPLSSFVDGQCIYSFGERADQVYQVEFGAVRVYRLAANGRRQILAFHFGGNWFGLQSRDRHSSNAEAIGVTGVRCISLQEEPLFRPALFSAALDNVSAAQEHQLVIGRQSAIERVAAFLLEMSERSGYSRRFELSMSRVDVADYLALTVETVSRSLTKLKHRGFIELHGARGIELVGYRALQNLCL, MGSDKIHHHHHHMNTTASPSRLLGVGLYTASQASSYTGIPAKDIRRWMFGYSASGVEHPGLWAPEIAFLDDKLLGFHDLLEIRFVHAFRQHGVSLQAIRSASLQAREMFGQRYPFTCRRFQTDGRDIFATVLDETGDEALLDLVKRQYAFKQVITPSLYEGIDYAGEESAKRWYPVKRSKAVVLDPARNFGKPVLTITGIDTAAIYHSYLAEGQSAKRVALLYEIPPAAVEAAVNFEHRIAA, MGSDKIHHHHHHMNVLNDSVDDTVQKKVAFFLPTLNIGGIERVFITYANYLIDKKYNIYFILCKRRGELLSLLDSNIKLYHLGNVQLKFSFLKLRQSLKEIQPDVIVSGGDFPNLILIVSSLGLKKVPKIIISQHNYYNVETRRLGWWAYGTCFFMKKIYPKADKIIAVSDGIREFLIKKIHISADRIIKLPNPIDIKGIKEKSLELLDITLPDRYILFVGRLSYVKNLFFLLDAFEMGKLDNNSLVIVGDGEMRNALMKKAKKMHKADNIIFLGAMENPLPILKKAQLLVLPSFSEAYPTILLEALCLYIPVVSTPTKGAKEILHNVSGTYISTDCYNIEEFARLMERGVKERISHKVIDDKIGLNSIENIGLRIQREIIEDNRL
